Measurements published in the DeepSol protein solubility set.

Assay: soluble on expression in E. coli; label from the status in PepcDB or PDB records

Sequence | soluble on expression in E. coli
AWQARGLGTARLQLVEFSAFVEPPDAVDSYQRHLFVHISQHCPSPGAPPLESVDVRQIYDKFPEKKGGLRELYDRGPPHAFFLVKFWADLNWGPSGEEAGAGGSISSGGFYGVSSQYESLEHMTLTCSSKVCSFGKQVVEKVETERAQLEDGRFVYRLLRSPMCEYLVNFLHKLRQLPERYMMNSVLENFTILQVVTNRDTQELLLCTAYVFEVSTSERGAQHHIYRLVRD | soluble
MSSDALPLLSIRGVGKTYAQPVLAEIDLQLFGGEVLALTGENGAGKSTLSKIVGGLERPGAGSLELLGRPYAPASRREAEALGVRMVMQELNLLPTLSVAENLFLHDLPRRAGWIDRRRLRAAAREAMAQVGLEAIDPDTLVGDLGIGHQQMVEIARNLIGDCRLLILDEPTAMLTAREVDMLFEQVERLRERGVAIVYISHRLEELARISQRIAVLRDGRLVCVEPIERYDADQLVTLMVGRDLGERFDLGPRQTGAPLLRVERLSRRGKVHEVSFEVRAGEIFGISGLIGSGRTELLRLIYGADRADGGQVLLGDPPQRLSLRSPADSVRQGVALITEDRKGEGLLLDQSISANLALGNLPALARHGVIDRRREEALARRQVEALRVRCADTAQAVGELSGGNQQKVVIGRWLERDCQVLLFDEPTRGIDVGAKFDIYALLAELTRRGKALVVVSSDLRELMLICDRIGVLSAGRMVDTFERDAWTQDALLAAAFAGYK | not soluble
MTQPEAVFFDCDGTLVDSEVICSRAYVHMFQEFGITLDLAEIFKRFKGVKLYEIIDTINAEYGVNLQKATLEPIYRAEVARLFDSELEVIPGAQALLDAVSVPMCVVSNGPVSKMQHSLGRTGLLRHFTDRLYSGYDIQRWKPDPALMFHAAEAMQVKAENCILVDDSSAGAQSGIAAGMEVFYFCADPHNQPIDHPKVTTFTDLAELPALWQARGWDITR | not soluble
MGSDKIHHHHHHMRIPEEIIKLVDTPEFQRLRGVKQLGLANLVYPGANHTRFEHSLGTWYLARKLSLELQLPREDSLLIQLAALLHDIGHGPFSHTFERIYRDRLDFHDHMEVSRRIVEGKIQICEDGGELPDIISSLGYEPREVGELIVGKHKKRYLRMIIHGDIDVDQLDYLTRDAHYTGVAHGIIDLERLLTVMRVFNGELVIDEKGIEAVEGMLVARSLMYSRVYFHRTVKIAEGMLIRAVEFALDEGELEDFWKMTDDRLVIELEDLGDFPGDIIRRIRRRKLFKAAVIIGPEDLTAEEKKSLTTLYRSQKKRKKIESELAEIVGAREGEVMVELSIPELILSEPRLKQVEVNVLLSGGKVEPIGKVTPLASAIKRRQTPRWILLVATLPEYMEGVKRVWREVILE | not soluble
MTLQEQIMKALHVQPVIDPKAEIRKRVDFLKDYVKKTGAKGFVLGISGGQDSTLAGRLAQLAVEEIRNEGGNATFIAVRLPYKVQKDEDDAQLALQFIQADQSVAFDIASTVDAFSNQYENLLDESLTDFNKGNVKARIRMVTQYAIGGQKGLLVIGTDHAAEAVTGFFTKFGDGGADLLPLTGLTKRQGRALLQELGADERLYLKMPTADLLDEKPGQADETELGITYDQLDDYLEGKTVPADVAEKIEKRYTVSEHKRQVPASMFDDWWKLAAALEHHHHHH | soluble
MVTKTTLASATSGLLLLAVVAMSGCTPRPQGPGPAAEKFFAALAIGDTASAAQLSDNPNEAREALNAAWAGLQAAHLDAQVLSAKYAEDTGTVAYRFSWHLPKDRIWTYDGQLKMARDEGRWHVRWTTSGLHPKLGEHQTFALRADPPRRASVNEVGGTDVLVPGYLYHYSLDAGQAGRELFGTAHAVVGALHPFDDTLNDPQLLAEQASSSTQPLDLVTLHADDSNRVAAAIGQLPGVVITPQAELLPTDKHFAPAVLNDVKKAVVDELDGKAGWRVVSVNQNGVDVSVLHEVAPSPASSVSITLDRVVQNAAQHAVNTRGGKAMIVVIKPSTGEILAIAQNAGADADGPVATTGLYPPGSTFKMITAGAAVERDLATPETLLGCPGEIDIGHRTIPNYGGFDLGVVPMSRAFASSCNTTFAELSSRLPPRGLTQAARRYGIGLDYQVDGITTVTGSVPPTVDLAERTEDGFGQGKVLASPFGMALVAATVAAGKTPVPQLIAGRPTAVEGDATPISQKMIDALRPMMRLVVTNGTAKEIAGCGEVFGKTGEAEFPGGSHSWFAGYRGDLAFASLIVGGGSSEYAVRMTKVMFESLPPGYLA | not soluble
MSLSNFKSISLTYRKAPLEIRERVALNEAECKSLMLRIKDFTDTAELLILSTCNRTEIYYTSNEDYSNDIIKLLGVEKNITGLIQQKEYFEIYNEQADAVLHLFEVGIGLDSQVVGDMQIVNQVKYAYQWSADLNLAGPFLHRLMHTIFFTNKRVVQETAFRDGAASVSYATVELSEELLSATPNANILIVGLGEIGADVCRNFKANTSFKNITLTNRSPLKSEALAAECGIEHVPFETLWEAVAKADLVISSVAKEEPLFTKEEIQKLSILSHKYFIDLSVPRSVDARAEELPGIIVYDIDHIQNRSNEALENRLNAIPHVRKIILDSIVEFNEWSKEMEVSPTINKLKNALEQIRKEELSRFVKQLSDEEAKKVDEITKSIMQKIIKLPVLQLKAACKRGEAETLIDVLNDLFNLDKQPEQIREGHHHHHH | soluble
GMAEKQYDFTHVPKRQGNSIKWGVLKEKELPMWIAEMDFKIAPEIMASMEEKLKVAAFGYESVPAEYYKAVADWEEIEHRARPKEDWCVFASGVVPAISAMVRQFTSPGDQILVQEPVYNMFYSVIEGNGRRVISSDLIYENSKYSVNWADLEEKLATPSVRMMVFCNPHNPIGYAWSEEEVKRIAELCAKHQVLLISDEIHGDLVLTDEDITPAFTVDWDAKNWVVSLISPSKTFNLAALHAACAIIPNPDLRARAEESFFLAGIGEPNLLAIPAAIAAYEEGHDWLRELKQVLRDNFAYAREFLAKEVPEVKVLDSNASYLAWVDISALGMNAEDFCKYLREKTGLIISAGNGYRGNGHEFVRINLACPKELVIDGMQRLKQGVLNLNN | soluble
MSLNYVAEIDLLAEELAQELEIEGGETYGILAAHLRSLYGIHITRTEAAGGLIRHFDPAGKTLALSSYMAAPTRCFQLALQIAQLHAGATVDRVLAGAGFRNAEAAEICRIGLHNYFAAALILPYGQFHRAAQELRHDLELLAVRFGASLEQVAHRLSTLQRPGMKGVPIFFAKIDRAGNITKRHSATRLQFARFGAACPLWNIHQAFESSDRIVRQLAETPDGVRYLSIATQIEKAGAGFNTERPRYAIALGCEISHAQNFVYADTLDLGNAASFKPIGISCRVCERVDCVQRAVPPLKRKLHFDHLSRGALPYQIAEGHHHHHH | not soluble
MEEVFTAALESKIFRKRWVLLPDYVPDVLPHREAELRRLAEVLAPALRGEKPSNALLYGLTGTGKTAVARLVLRRLEARASSLGVLVKPIYVNARHRETPYRVASAIAEAVGVRVPFTGLSVGEVYERLVKRLSRLRGIYIIVLDEIDFLPKRPGGQDLLYRITRINQELGDRVWVSLVGITNSLGFVENLEPRVKSSLGEVELVFPPYTAPQLRDILETRAEEAFNPGVLDPDVVPLCAALAAREHGDARRALDLLRVAGEIAERRREERVRREHVYSARAEIERDRVSEVVRTLPLHAKLVLLSIMMLEDGGRPASTGEIYERYKELTSTLGLEHVTLRRVSGIISELDMLGIVKSRVVSRGRYGKTREVSLDADRLAVENALSEDPFVARLL | not soluble
MNDAVITLNGLEKRFPGMDKPAVAPLDCTIHAGYVTGLVGPDGAGKTTLMRMLAGLLKPDSGSATVIGFDPIKNDGALHAVLGYMPQKFGLYEDLTVMENLNLYADLRSVTGEARKQTFARLLEFTSLGPFTGRLAGKLSGGMKQKLGLACTLVGEPKVLLLDEPGVGVDPISRRELWQMVHELAGEGMLILWSTSYLDEAEQCRDVLLMNEGELLYQGEPKALTQTMAGRSFLMTSPHEGNRKLLQRALKLPQVSDGMIQGKSVRLILKKEATPDDIRHADGMPEININETTPRFEDAFIDLLGGAGTSESPLGAILHTVEGTPGETVIEAKELTKKFGDFAATDHVNFAVKRGEIFGLLGPNGAGKSTTFKMMCGLLVPTSGQALVLGMDLKESSGKARQHLGYMAQKFSLYGNLTVEQNLRFFSGVYGLRGRAQNEKISRMSEAFGLKSIASHATDELPLGFKQRLALACSLMHEPDILFLDEPTSGVDPLTRREFWLHINSMVEKGVTVMVTTHFMDEAEYCDRIGLVYRGKLIASGTPDDLKAQSANDEQPDPTMEQAFIQLIHDWDKEHSNE | soluble
MKRDKEVSINKKDPFSVLIMGVDERDGDKGRADTLIYMTVNPKTNTTDMVSIPRDTYTKIIGKGTMDKINHSYAFGGTQMTVDTVENFLDVPVDYFVKVNMESFRDVVDTLGGITVNSTFAFSYDGYSFGKGEITLNGKEALAYTRMRKEDPRGDFGRQDRQRQVIQGIINKGANISSITKFGDMFKVVENNVKTNLTFDNMWDIQSDYKGARKHIKQHELKGTGTKINGIYYYQADESALSDITKELKESLEKLEHHHHHH | soluble
MAGDPMTELEMHLLNALEQLQQDYTQRLKDWESPFTDLQHMFELTRQENGQLREQCDDLSQQVQRLAGQVDHLSRLFITNSRLEHHHHHH | not soluble
MGHHHHHHSHREMVLQFLAFSRVAQDCRGTSWPKTVYFTFQFYRFPPATTPRLQLVQLDEAGQPSSGALTHILVPVSRDGTFDAGSPGFQLRYMVGPGFLKPGERRCFARYLAVQTLQIDVWDGDSLLLIGSAAVQMKETSHIFSVSQ | not soluble
MGSDKIHHHHHHMLNIVVVAHPDDEILGFGATGAKLAAKGEVVQPIILCGSVDARTLRPTDEELHSDMLKANSLVGFSKPVLGDFPNISMNTVPHVELVQFIEEQIKKFRPNRIFTHHPNDLNNDHTQVSNACLAASRLFQRRNDLPALEALYFMEILSSTDWAFPAVGDGFKPTTFVEITCELEKKLAALHHYRNVMRPFPHPRSDEVVTGLAAYRGGQAGLKYAEAFQLVFKQGV | not soluble
MDKIHAMQLFIRVADLESFSRAAETLALPKGSVSRQIQALESHLGVRLLHRTTRRVQLTQDGMVYYERAKDLLSNLDELDGMFQHDPASISGRLRVDMPVGFAKKMVIPHLPTFLQQYPGIELELSSSDRQVDVIREGFDCVVRVGALKDSGLIARPLGKLTQINCASPDYLARFGYPQSLEDLADHALIHYASTLGVRPPGFEVMIDGAVRWVKTGGILTVNSTETYQAACIAGLGIIQVPRTGVREALRAGDLIEILPQYRAEPLPVSLIYPHRRNLSRRVNLFMEWLGGLMKAYVD | not soluble
MGSDKIHHHHHHMKESLISFIKEKIEEYNYRGAVVGVSGGVDSAVVLSLCVQALGKDRVFALILPERDSSKDSLKDAVDFCERLGVEYRKRSITPILRKIGVYRLFPPRLFLPDSIVKRYVLNRWNTLSKDPFLDDLRNTGPEEFLKGLAYYRIKHRIRMCLLYFEAEKRGYAVVGTTNRTEYLTGLYVKWGDEAVDIEPIMHLYKTQVFELAKEMNVPEKILKKPPSPDLIPGITDEMAFNMSYLELDRILMKLEKNEDLSDEDPKKVERVKKILELSEKYRRDIPITFDRI | not soluble
MSDDEIGDGARAFNQLIQALSLSIETETAVRTFTEMLVSELDVHQLTEQALALLLQHTGADGGAILIEVDGEIRVAASQGIGSAHTLANNDRVRSALRTERRHRVQLPEDLVVDGMLAQFRPKEVIIDPVRHKEVVLGAVVLASGQGFSAEDRNRLDVFERGLALALHNALLYDRLQTLAALDPLEHHHHHH | not soluble
